These results are taken from PMC2408963, “A Detailed Analysis of the Murine TAP Transporter Substrate Specificity” (PLoS ONE, 2008).

Data set [1] relates to murine TAP1 or TAP2 protein alone.
Text: Using the same insect cell system for TAP expression, a novel assay was established which is based on detecting fluorescence polarization rather than the activity of a radioactive tracer. […] To establish a fluorescence polarization assay, we determined the concentrations of reporter peptide and microsomes yielding the highest specific binding signal (mP reading).
The subject of a further data set is human TAP complexes. In words: Fluorescence polarization assay with insect cell-expressed human TAP. Format: binding. (In fluorescence polarisation assays a small probe gives low polarisation when free and higher when bound to something large.)

Where no end group is shown, it is not given here.

On to “R9L-FITC: reporter peptide in which position 6 (Ser) of R9L was substituted by a Cys residue coupled to a fluorescein group (RRYNAC(fluorescein)TEL)”, for which, in data set [1], the “binding to microsomes containing either murine TAP1 or TAP2 protein alone” value is “did not bind”. Moreover, the “affinity for human TAP compared with murine TAP” value with human TAP complexes is given as “identical affinity”.
